How the values were obtained:
[1] = target: Full length His-tagged S. aureus SPase (S. aureus) (UniProt P0A070); assay: fluorescence binding titration; compound conc. 125 (unit inferred)
[2] = target: Full length His-tagged S. aureus SPase (S. aureus) (UniProt P0A070); assay: fluorescence binding titration; compound conc. 250 (unit inferred)
[3] = target: Full length His-tagged S. aureus SPase (S. aureus) (UniProt P0A070); assay: fluorescence binding titration; compound conc. 500 (unit inferred)
[4] = target: Full length His-tagged S. aureus SPase (S. aureus) (UniProt P0A070); assay: fluorescence binding titration; compound conc. 1000 (unit inferred)
[5] = target: Full length His-tagged S. aureus SPase (S. aureus) (UniProt P0A070); assay: fluorescence binding titration; compound conc. 2000 (unit inferred)
[6] = target: Full length His-tagged S. aureus SPase (S. aureus) (UniProt P0A070); assay: fluorescence binding titration; compound conc. 4000 (unit inferred)
[7] = target: Full length His-tagged S. aureus SPase (S. aureus) (UniProt P0A070); assay: fluorescence binding titration; compound conc. 62.5 (unit inferred)
[8] = target: Full length His-tagged S. aureus SPase (S. aureus) (UniProt P0A070); assay: fluorescence binding titration; compound conc. 8000 (unit inferred)
[9] = target: Full length His-tagged S. aureus SPase (S. aureus) (UniProt P0A070); assay: fluorescence binding titration; compound conc. 31.25 (unit inferred)
[10] = target: Full length His-tagged E. coli SPase (E. coli) (UniProt P00803); assay: fluorescence binding titration; compound conc. 0.E+00 (unit inferred)
[11] = target: Full length His-tagged E. coli SPase (E. coli) (UniProt P00803); assay: fluorescence binding titration; compound conc. 1.E+02 (unit inferred)
[12] = target: Full length His-tagged E. coli SPase (E. coli) (UniProt P00803); assay: fluorescence binding titration; compound conc. 1.E+03 (unit inferred)
[13] = target: Full length His-tagged S. aureus SPase (S. aureus) (UniProt P0A070); assay: fluorescence binding titration; compound conc. 15.625 (unit inferred)
[14] = target: Full length His-tagged E. coli SPase (E. coli) (UniProt P00803); assay: fluorescence binding titration; compound conc. 2.E+01 (unit inferred)
[15] = target: Full length His-tagged E. coli SPase (E. coli) (UniProt P00803); assay: fluorescence binding titration; compound conc. 2.E+03 (unit inferred)
[16] = target: Full length His-tagged E. coli SPase (E. coli) (UniProt P00803); assay: fluorescence binding titration; compound conc. 3.E+01 (unit inferred)
[17] = target: Full length His-tagged E. coli SPase (E. coli) (UniProt P00803); assay: fluorescence binding titration; compound conc. 3.E+02 (unit inferred)
[18] = target: Full length His-tagged E. coli SPase (E. coli) (UniProt P00803); assay: fluorescence binding titration; compound conc. 4.E+03 (unit inferred)
[19] = target: Full length His-tagged E. coli SPase (E. coli) (UniProt P00803); assay: fluorescence binding titration; compound conc. 5.E+02 (unit inferred)
[20] = target: Full length His-tagged E. coli SPase (E. coli) (UniProt P00803); assay: fluorescence binding titration; compound conc. 6.E+01 (unit inferred)
[21] = target: Full length His-tagged E. coli SPase (E. coli) (UniProt P00803); assay: fluorescence binding titration; compound conc. 8.E+00 (unit inferred)
[22] = target: T1, decanoyl-LSSPA Y^NO2 A ADK^abzPD (SEQ ID NO: 1)
T1 chain: LSSPAYAADKPD

[23] = target: T2, decanyol-LTPTAY^NO2 A ASKK^abzDD (SEQ ID NO: 2)
T2 chain: LTPTAYAASKKDD

Chain of Full length His-tagged E. coli SPase (E. coli) (P00803 whole entry): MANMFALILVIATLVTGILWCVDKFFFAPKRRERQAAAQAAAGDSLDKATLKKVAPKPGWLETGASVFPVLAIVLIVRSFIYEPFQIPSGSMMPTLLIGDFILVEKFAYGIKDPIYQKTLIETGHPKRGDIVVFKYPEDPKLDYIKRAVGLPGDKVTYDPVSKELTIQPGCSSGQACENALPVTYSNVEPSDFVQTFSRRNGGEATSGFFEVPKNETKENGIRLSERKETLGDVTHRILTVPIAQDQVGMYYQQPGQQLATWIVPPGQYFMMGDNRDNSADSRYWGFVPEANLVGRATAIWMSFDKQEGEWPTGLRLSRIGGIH

Compound 1 (arylomycin C16) (peptide) gave a % Comp calc [1] of 14%, a % Comp obs [1] of 13.7% and a % Comp calc [2] of 25.4%. For the same molecule, the % Comp obs [2] was 25.6%, the % Comp calc [3] was 42% and the % Comp obs [3] was 38.6%. For the same molecule, the % Comp calc [4] was 61.1%, the % Comp obs [4] was 59.1% and the % Comp calc [5] was 77.1%. It also gave a % Comp obs [5] of 86.1%, a % Comp calc [6] of 87.6% and a % Comp obs [6] of 87.3%. For the same molecule, the % Comp calc [7] was 7.4%, the % Comp obs [7] was 6.4% and the % Comp calc [8] was 93.6%. It also gave a % Comp obs [8] of 87.8%, a % Comp calc [9] of 3.8% and a % Comp obs [9] of 4.9%. The % Comp calc [10] was 0%, the % Comp obs [10] was -1% and the % Comp calc [11] was 71%. The % Comp obs [11] was 69%, the % Comp calc [12] was 96% and the % Comp obs [12] was 98%. The % Comp calc [13] was 1.9%, the % Comp obs [13] was 1.7% and the % Comp calc [14] was 17%. It also gave a % Comp obs [14] of 16%, a % Comp calc [15] of 98% and a % Comp obs [15] of 102%. For the same molecule, the % Comp calc [16] was 31%, the % Comp obs [16] was 32% and the % Comp calc [17] was 85%. For the same molecule, the % Comp obs [17] was 81%, the % Comp calc [18] was 99% and the % Comp obs [18] was 95%. It also gave a % Comp calc [19] of 92%, a % Comp obs [19] of 92% and a % Comp calc [20] of 51%. For the same molecule, the % Comp obs [20] was 53%, the % Comp calc [21] was 9% and the % Comp obs [21] was 10%.

B1: Full length His-tagged S. aureus SPase (protein)
chain: MKKELLEWIISIAVAFVILFIVGKFIVTSYTIKGESMDPTLKDGERVAVNIIGYKTGGLEKGNVVVFHANKNDDYVKRVIGVPGDKVEYKNDTLYVNGKKQDEPYLNYNLKHKQGDYITGTFQVKDLPNANPKSNVIPKGKYLVLGDNREVSKDSRAFGLIDEDQIVGKVSFRFWPFSEFKHNFNPENTKN
For B1, the “second order rate constant (Kcat/KM) of substrate cleavage” value [22] was 10^5 M^-1s^-1 and the “second order rate constant (Kcat/KM) of substrate cleavage” value [23] was 10^5 M^-1s^-1.

From patent US10501493B2, “Broad spectrum antibiotics” (priority 2011, dated 2019)
